Test results reported in US10000771B2, “Nuclear targeting sequences” (Yeda Research and Development Co. Ltd., priority 2007, dated 2018).
Each block holds one molecule with its values, some of them ahead of it.

Columns and labels:
CHO cells = test: Microscopy of MEK1-GFP constructs (subcellular localization); format: cell-based
Procedure: FIGS. 14A-14R are photomicrographs illustrating that the NTS motif regulates MEK1 shuttling into the nucleus. CHO cells overexpressing WT-GFP-MEK1 (WT), AAA-GFP-MEK1 (AAA-MEK) and EPE-GFP-MEK1 (EPE-MEK) were starved for 16 hr and treated with LMB (5 ng/ml, 1 hr; LMB), LMB (5 ng/ml, 1 hr)+TPA (250 nM, 15 min; LMB+TPA) or left un treated (NT). Subsequently the cells were fixed, stained with DAPI and visualized by a fluorescent microscope.
Immunofluorescence Microscopy. Cells were fixed (30 min in 3% paraformaldehyde in PBS or 10 min with ice-cold methanol), followed by 5-min permeabilization with 0.2% Triton X-100 in PBS (23° C.). The fixed cells were sequentially incubated with the appropriate Abs (45 min) followed by rhodamine-conjugated secondary Abs (45 min) and DAPI. Slides were visualized using a fluorescence microscope (Nikon, Japan) at 400× magnifications.
Other proteins that translocate into the nucleus upon stimulation are the MEKs [H. Jaaro, H. Rubinfeld, T. Hanoch, R. Seger, Proc. Natl. Acad. Sci. USA 94, 3742 (1997)]. […] This TPT sequence was also shown to be phosphorylated upon cellular stimulation [S. Matsuda, Y. Gotoh, E. Nishida, J Biol Chem 268, 3277 (Feb. 15, 1993)], and to be involved in protein-protein interaction that can determine subcellular localization [A. Nantel, K. Mohammad-Ali, J. Sherk, B. I. Posner, D. Y. Thomas, J Biol Chem 273, 10475 (Apr. 24, 1998). […]

Act-GST-ERK2 = molecular target: T1, Act-GST-ERK2 (Rattus norvegicus, UniProt P63086); test: In vitro kinase assay with active GST-ERK2; format: biochemical; details: immunoprecipitated protein as substrate, relative to GFP-ERK2
T1 construct: made in house; host or cells: bacteria co-expressing active MEK1
T1 sequence (P63086 whole entry): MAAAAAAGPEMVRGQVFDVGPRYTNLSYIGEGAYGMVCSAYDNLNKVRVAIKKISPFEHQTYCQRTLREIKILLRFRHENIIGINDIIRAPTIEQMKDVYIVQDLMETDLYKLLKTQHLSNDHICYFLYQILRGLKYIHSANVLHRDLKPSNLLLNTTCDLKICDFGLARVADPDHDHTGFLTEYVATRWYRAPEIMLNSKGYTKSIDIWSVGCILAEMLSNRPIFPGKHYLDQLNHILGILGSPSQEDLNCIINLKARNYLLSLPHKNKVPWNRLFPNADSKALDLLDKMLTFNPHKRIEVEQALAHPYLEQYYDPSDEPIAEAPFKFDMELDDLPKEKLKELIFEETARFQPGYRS
Procedure: (§1) FIGS. 4A-4I are autoradiographs characterizing SPS phosphorylation using an Ab to the phosphorylated SPS domain. FIG. 4A illustrates an elevation of pSPS detection upon stimulation. COS cells were transfected with WT-GFP-ERK2. Twenty-four hr after transfection, the cells were serum-starved for 16 hr and subsequently treated with the general stimulator VOOH (V, 100 μM Na3VO4 and 200 μM H2O2, 15 min), TPA (T, 250 nM, 15 min), EGF (E, 50 ng/ml for 15 min), or left untreated (NT). The GFP-ERK2 was immunoprecipitated with anti GFP Ab, extensively washed, and the IP was then subjected to Western blotting with anti phospho SPS-ERK (αphoSPS-ERK) and anti general ERK (αgen-ERK) Abs. FIG. 4B is a time course of SPS phosphorylation. […] SPS phosphorylation was detected using the anti pSPS Abs, and this was compared to the amount of genral ERKs detected by αgERK. […] SPS-phosphorylation was detected using αpSPS and αgERK Abs. […] The phosphorylation (^32P-ERK2) of ERK and its mutants was detected by autoradiography. […]
Some protein kinases downstream of MEKs that may be involved in the SPS phosphorylation are ERKs themselves (autophosphorylation) as their consensus phosphorylation site includes Ser/Thr followed by a Pro (Yoon and Seger, 2006, Growth Factors, 24, 21-44). […] As expected, ^32P incorporation to GFP-ERK2 was detected mainly when this protein was incubated with Act-ERK2. […]

SPS domain = test: SPS phosphorylation detected by anti pSPS Ab Western blot; format: cell-based; details: COS7 cells, stimulated with VOOH, TPA, EGF or TGFβ, immunoprecipitation and Western blot
Procedure: as §1, with “phosphorylation. COS7 cells overexpressing WT-GFP-ERK2 were serum starved followed by EGF stimulation for the indicated time points. The lysates were then subjected to Western blot analysis as in FIG. 4A.” for “phosphorylation.”
FIG. 9B is an autoradiograph illustrating that stimulation elevates pSPS phosphorylation of 2GFP-SPS construct. […] The total amount of immunoprecipitated 2GFP-SPS was detected with αGFP Ab. […]

B1: AAA-MEK1: GFP-MEK1 with residues 386-8 (TPT) replaced with Ala (protein, UniProt Q02750 1-393, looked up, variant T386A P387A T388A)
Dual specificity …: MPKKKPTPIQLNPAPDGSAVNGTSSAETNLEALQKKLEELELDEQQRKRLEAFLTQKQKVGELKDDDFEKISELGAGNGGVVFKVSHKPSGLVMARKLIHLEIKPAIRNQIIRELQVLHECNSPYIVGFYGAFYSDGEISICMEHMDGGSLDQVLKKAGRIPEQILGKVSIAVIKGLTYLREKHKIMHRDVKPSNILVNSRGEIKLCDFGVSGQLIDSMANSFVGTRSYMSPERLQGTHYSVQSDIWSMGLSLVEMAVGRYPIPPPDAKELELMFGCQVEGDAAETPPRPRTPGRPLSSYGMDSRPPMAIFELLDYIVNEPPPKLPSGVFSLEFQDFVNKCLIKNPAERADLKQLMVHAFIKRSDAEEVDFAGWLCSTIGLNQPSAAAHAAGV
modifications: GFP fusion
notes: GFP-MEK1 with residues 386-8 (TPT) replaced with Ala
nuclear accumulation after TPA stimulation (CHO cells; LMB 5 ng/ml + TPA 250 nM, 15 min): localized in the cytoplasm | nuclear translocation after leptomycin B (CHO cells; LMB 5 ng/ml, 1 hr): abrogated

reduction of phosphorylation (32P incorporation) by Act-ERK2 (Act-GST-ERK2): ~25%
B2: TEY-AAA: TEY mutated ERK2 that does not contain phosphates in this site (protein)
chain: MAAAAAAGPEMVRGQVFDVGPRYTNLSYIGEGAYGMVCSAYDNLNKVRVAIKKISPFEHQTYCQRTLREIKILLRFRHENIIGINDIIRAPTIEQMKDVYIVQDLMETDLYKLLKTQHLSNDHICYFLYQILRGLKYIHSANVLHRDLKPSNLLLNTTCDLKICDFGLARVADPDHDHTGFLAAAVATRWYRAPEIMLNSKGYTKSIDIWSVGCILAEMLSNRPIFPGKHYLDQLNHILGILGSPSQEDLNCIINLKARNYLLSLPHKNKVPWNRLFPNADSKALDLLDKMLTFNPHKRIEVEQALAHPYLEQYYDPSDEPIAEAPFKFDMELDDLPKEKLKELIFEETARFQPGYRS
modifications: left off: large carriers
SPS phosphorylation upon stimulation (anti pSPS Ab recognition) (SPS domain): can still be recognize by the anti phosphoSPS Ab upon stimulation
